These results are taken from publication PMC7866087, “Evaluation of Computationally Designed Peptides against TWEAK, a Cytokine of the Tumour Necrosis Factor Ligand Family” (International Journal of Molecular Sciences, 2021).

What all share (type): cell-based, human
Assay [1] concerns HT29 cells, Fn14 gene expression. Nature of the assay: Fn14 gene expression with TWEAK, HT29 (RT-PCR). The settings on record: HT29, TWEAK 25 ng/ml. As for the experimental part:
(§1) Figure 1 Characterization TWEAK-dependent/not dependent cells. (A) Representative images of Fn14 expression (pink) in BRV5, 435-P and HT29 cells labelled by immunofluorescence. The protein has similar expression in BRV5 and the positive control HT29 cells, and less expressed in 435-P. DAPI (blue) was used for nucleus identification. (B) RT-PCR analysis to quantify Fn14 gene expression of cells cultured in the presence (dark green) or absence (light green) of TWEAK (25 ng/mL) at 48 h. Up-regulation of Fn14 is observed only in HT29 and BRV5 cells. Bars and error bars represent the average and standard deviation as calculated from three replicates respectively. P values represented as: * - significant (Pvalue: 0.01 to 0.05) and **- very-significant (Pvalue: 0.001 to 0.01).
(§2) Since the transcriptional activation of Fn14 expression can be induced in cancer cells by the TWEAK-Fn14 interaction, either in a paracrine or autocrine manner, we investigated whether TWEAK transactivates Fn14 (TNFR2F12A) in BRV5 brain metastatic cells. We primed cells with TWEAK and analysed TNFR2F12A gene expression including in the analysis 435-Br1 cells, the first generation of brain metastatic cells BRV5.
Three different cell lines were used in this study: BRV5, MDA-MB 435 (435-P), and HT29. The BRV5 is a highly metastatic brain cell line, obtained in one of our laboratories by primary culture from a brain of a nude mouse inoculated with human 435-Br1 brain metastatic cells, as previously described and used as a model to test the peptides in cell cultures. […] The triple negative 435-P cell line is a useful human breast cancer model that expresses both epithelial and melanocytic markers, and was included as the parental cell from which 435-Br1 metastatic variant was initially originated (both cell lines kindly provided by Dr Fabra at IDIBELL Institute, Hospitalet de Llobregat, Spain). […]

Assay [2] deals with 435-P cells, TNFR2F12A gene expression. Nature of the assay: Fn14 gene expression with TWEAK, 435-P (RT-PCR). The settings on record: for Normalized level of expression of Fn14 gene: TWEAK 25 ng/ml. As for the experimental part:
as §1, §2
(§3) Three different cell lines were used in this study: BRV5, MDA-MB 435 (435-P), and HT29. The BRV5 is a highly metastatic brain cell line, obtained in one of our laboratories by primary culture from a brain of a nude mouse inoculated with human 435-Br1 brain metastatic cells, as previously described and used as a model to test the peptides in cell cultures. […] The triple negative 435-P cell line is a useful human breast cancer model that expresses both epithelial and melanocytic markers, and was included as the parental cell from which 435-Br1 metastatic variant was initially originated (both cell lines kindly provided by Dr Fabra at IDIBELL Institute, Hospitalet de Llobregat, Spain). Finally, HT29 human colon carcinoma cells obtained from the European Type Culture Collection (ECACC 91072201) were used as a positive control of TWEAK dependent Fn14 over-expressing cells to evaluate TWEAK-Fn14 axis of brain metastatic variants.

Assay [3] deals with HT29 cells, NIK expression. Kind of assay: Time-course RT-PCR of NIK (MAP4K4), HT29. The settings on record: TWEAK, 6 to 24 h.
Assay [4] concerns BRV5 cells, Fn14 gene expression. Nature of the assay: Fn14 gene expression with TWEAK, BRV5 (RT-PCR). The settings on record: for Normalized level of expression of Fn14 gene: BRV5, TWEAK 25 ng/ml. The method, then:
as §1, §2, §3

Assay [5] deals with 435-Br1 cells, TNFR2F12A gene expression. Kind of assay: Fn14 gene expression with TWEAK, 435-Br1 (RT-PCR). To be noted: for Normalized level of expression of Fn14 gene: 435-Br1, TWEAK 25 ng/ml. The method, then:
as §1, §2, §3

B1: tumour necrosis factor-like weak inducer of apoptosis (protein, UniProt O43508 94-249, looked up)
Tumor necrosis factor ligand …: SAPKGRKTRARRAIAAHYEVHPRPGQDGAQAGVDGTVSGWEEARINSSSPLRYNRQIGEFIVTRAGLYYLYCQVHFDEGKAVYLKLDLLVDGVLALRCLEEFSATAASSLGPQLRLCQVSGLLALRPGSSLRIRTLPWAHLKAAPFLTYFGLFQVH
For the molecule B1, the “Normalized level of expression of Fn14 gene” value in assay [1] (technical replicate 1) is listed as 0.1964; in assay [1] (technical replicate 2), 0.2154; in assay [1] (technical replicate 3), 0.2052; in assay [2] (technical replicate 1) it was 0.1395; in assay [2] (technical replicate 2), 0.1292; in assay [2] (technical replicate 3), 0.1408. In addition, the “Normalized level of expression of Fn14 gene” value in assay [4] (technical replicate 1) was determined as 0.1340; in assay [4] (technical replicate 2) it was 0.1202; in assay [4] (technical replicate 3), 0.1441; in assay [5] (technical replicate 1), 0.1600; in assay [5] (technical replicate 2), 0.1676; in assay [5] (technical replicate 3) it was 0.1719. For the same molecule, the TNFR2F12A gene expression entry is “decreased TNFR2F12A gene expression in 435-P cells with regard to controls (p = 0.0246)” in assay [2] (TWEAK 25 ng/mL, 48 h) and “no differences were found” in assay [5] (TWEAK 25 ng/mL, 48 h, 435-Br1). In addition, the NIK expression entry in assay [3] is recorded as “highest NIK expression, occurred 6 h after”. The Fn14 transcriptional expression result in assay [4] (TWEAK 25 ng/mL, 48 h, BRV5) is given as “significantly activated in BRV5 cells (p = 0.0031)”.
